Patent US20060030530A1

Tests used:
[1] = molecular target: human LSR α′ subunit expressed in CHO-K1 cells (human) (UniProt Q86X29); assay: cell-associated ^125I-leptin on CHO-K1 cells stably expressing LSR α′, 37° C., 2 h; Lineweaver-Burk transformation (FIG. 3C, inset)
[2] = molecular target: endogenous human LSR of PLC hepatoma cells (human) (UniProt Q86X29); assay: cell-based or functional assay
[3] = molecular target: human LSR α′ subunit expressed in CHO-K1 cells (human) (UniProt Q86X29); assay: cell-based or functional assay

Sequence of endogenous human LSR of PLC hepatoma cells (human) (Q86X29 whole entry): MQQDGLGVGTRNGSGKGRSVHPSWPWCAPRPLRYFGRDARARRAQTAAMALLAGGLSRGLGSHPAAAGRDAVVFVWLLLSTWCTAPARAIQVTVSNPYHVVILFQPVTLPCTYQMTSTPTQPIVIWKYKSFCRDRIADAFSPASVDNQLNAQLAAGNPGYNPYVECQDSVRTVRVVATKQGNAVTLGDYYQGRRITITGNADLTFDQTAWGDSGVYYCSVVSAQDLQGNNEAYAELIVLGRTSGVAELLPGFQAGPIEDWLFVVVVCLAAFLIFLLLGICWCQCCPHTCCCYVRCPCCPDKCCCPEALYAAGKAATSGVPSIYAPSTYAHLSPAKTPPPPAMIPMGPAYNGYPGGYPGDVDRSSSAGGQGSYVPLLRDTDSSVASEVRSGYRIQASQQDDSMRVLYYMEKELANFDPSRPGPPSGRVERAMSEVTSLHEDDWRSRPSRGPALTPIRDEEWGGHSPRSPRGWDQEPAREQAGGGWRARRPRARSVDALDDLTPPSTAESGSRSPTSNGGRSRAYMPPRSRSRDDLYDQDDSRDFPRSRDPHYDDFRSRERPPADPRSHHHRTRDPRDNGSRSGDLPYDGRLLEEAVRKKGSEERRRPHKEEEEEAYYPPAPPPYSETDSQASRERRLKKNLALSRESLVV
Sequence of human LSR α′ subunit expressed in CHO-K1 cells (human) (Q86X29 whole entry): as above

Row | Substance | Kd [1] | ^125I-leptin degradation by PLC cells (TCA-soluble chloroform-insoluble products) [2] | ^125I-leptin degraded relative to that bound and internalized [3] | acute leptin stimulation of oleate-induced ^125I-LDL binding in PLC cells preincubated 24 h with 200 ng/mL leptin: leptin concentration giving the maximal effect [2] | acute leptin stimulation of oleate-induced ^125I-LDL binding in PLC cells preincubated 24 h with 200 ng/mL leptin: reduction of the maximal effect [2] | oleate-induced LSR binding uptake and degradation of ^125I-LDL in PLC cells [2]
1 | ^125I-leptin (species not stated) (ligand) | 1.3 nM | > 10 ng/mL | 16% | – | – | –
2 | recombinant human leptin (from UniProt P41159 22-167) (ligand) | – | – | – | 100 ng/mL | 50% | > 10 ng/mL
